Results published in US20120316071A1 (published 2012).

B1: Fab VH5-51_IGHD5-18*01>3_IGHJ4*01 G100K/G104T G24T/S28R/G35V (KT TRV) & V3-4_IGLJ1*01 (wildtype) (Fab, V domains shown)
VH: EVQLVQSGAEVKKPGESLKISCKTSGYRFTSYWIVWVRQMPGKGLEWMGIIYPGDSDTRYSPSFQGQVTISADKSISTAYLQWSSLKASDTAMYYCARRKYSYTYDYFDYWGQGTLVTVSS
VL: QTVVTQEPSFSVSPGGTVTLTCGLSSGSVSTSYYPSWYQQTPGQAPRTLIYSTNTRSSGVPDRFSGSILGNKAALTITGAQADDESDYYCVLYMGSGISYVFGTGTKVTVL
notes: Fab; Expressed in E. coli with CH1 (plasmid A, His6 and Flag tags) and lambda CL (plasmid E); also called H:KT TRV & L:wt
B2: Fab VH5-51_IGHD5-18*01>3_IGHJ4*01 G100K/G104T G24L/S28R/G35V (KT LRV) & V3-4_IGLJ1*01 V91L/S96P S52Q (Fab, V domains shown)
VH: EVQLVQSGAEVKKPGESLKISCKTSGYRFTSYWIVWVRQMPGKGLEWMGIIYPGDSDTRYSPSFQGQVTISADKSISTAYLQWSSLKASDTAMYYCARRKYSYTYDYFDYWGQGTLVTVSS
VL: QTVVTQEPSFSVSPGGTVTLTCGLSSGSVSTSYYPSWYQQTPGQAPRTLIYQTNTRSSGVPDRFSGSILGNKAALTITGAQADDESDYYCLLYMGPGISYVFGTGTKVTVL
notes: Fab; Expressed in E. coli with CH1 (plasmid A, His6 and Flag tags) and lambda CL (plasmid E); also called G100K/G104T G24L/S28R/G35V & V91L/S96P S52Q
B3: Fab VH5-51_IGHD5-18*01>3_IGHJ4*01 G100K/G104T G24T/S28R/G35V (KT TRV) & V3-4_IGLJ1*01 V91L/S96P S52G (LP S52G) (Fab, V domains shown)
VH: EVQLVQSGAEVKKPGESLKISCKTSGYRFTSYWIVWVRQMPGKGLEWMGIIYPGDSDTRYSPSFQGQVTISADKSISTAYLQWSSLKASDTAMYYCARRKYSYTYDYFDYWGQGTLVTVSS
VL: QTVVTQEPSFSVSPGGTVTLTCGLSSGSVSTSYYPSWYQQTPGQAPRTLIYGTNTRSSGVPDRFSGSILGNKAALTITGAQADDESDYYCLLYMGPGISYVFGTGTKVTVL
notes: Fab; Expressed in E. coli with CH1 (plasmid A, His6 and Flag tags) and lambda CL (plasmid E); also called H:KT TRV & L:LP S52G
B4: Fab VH5-51_IGHD5-18*01>3_IGHJ4*01 G100K/G104T G24A/S28R/G35V (KT ARV) & V3-4_IGLJ1*01 V91L/S96P S52H (Fab, V domains shown)
VH: EVQLVQSGAEVKKPGESLKISCKTSGYRFTSYWIVWVRQMPGKGLEWMGIIYPGDSDTRYSPSFQGQVTISADKSISTAYLQWSSLKASDTAMYYCARRKYSYTYDYFDYWGQGTLVTVSS
VL: QTVVTQEPSFSVSPGGTVTLTCGLSSGSVSTSYYPSWYQQTPGQAPRTLIYHTNTRSSGVPDRFSGSILGNKAALTITGAQADDESDYYCLLYMGPGISYVFGTGTKVTVL
notes: Fab; Expressed in E. coli with CH1 (plasmid A, His6 and Flag tags) and lambda CL (plasmid E); Fab H:KT TRV & L:LP S52H; also called G100K/G104T G24A/S28R/G35V & V91L/S96P S52H
B5: Fab VH5-51_IGHD5-18*01>3_IGHJ4*01 G100K/G104T S28R (KT S28R) & V3-4_IGLJ1*01 (wildtype) (Fab, V domains shown)
VH: EVQLVQSGAEVKKPGESLKISCKGSGYRFTSYWIGWVRQMPGKGLEWMGIIYPGDSDTRYSPSFQGQVTISADKSISTAYLQWSSLKASDTAMYYCARRKYSYTYDYFDYWGQGTLVTVSS
VL: QTVVTQEPSFSVSPGGTVTLTCGLSSGSVSTSYYPSWYQQTPGQAPRTLIYSTNTRSSGVPDRFSGSILGNKAALTITGAQADDESDYYCVLYMGSGISYVFGTGTKVTVL
notes: Fab; Expressed in E. coli with CH1 (plasmid A, His6 and Flag tags) and lambda CL (plasmid E); also called H:KT S28R & L:wt
B6: Fab VH5-51_IGHD5-18*01>3_IGHJ4*01 G100K/G104T G24A/S28R/G35V (KT ARV) & V3-4_IGLJ1*01 V91L/S96P S52V (Fab, V domains shown)
VH: EVQLVQSGAEVKKPGESLKISCKTSGYRFTSYWIVWVRQMPGKGLEWMGIIYPGDSDTRYSPSFQGQVTISADKSISTAYLQWSSLKASDTAMYYCARRKYSYTYDYFDYWGQGTLVTVSS
VL: QTVVTQEPSFSVSPGGTVTLTCGLSSGSVSTSYYPSWYQQTPGQAPRTLIYVTNTRSSGVPDRFSGSILGNKAALTITGAQADDESDYYCLLYMGPGISYVFGTGTKVTVL
notes: Fab; Expressed in E. coli with CH1 (plasmid A, His6 and Flag tags) and lambda CL (plasmid E); The light-chain S52 variants were made on the KT TRV heavy chain (T0104); also called G100K/G104T G24A/S28R/G35V & V91L/S96P S52V
B7: Fab VH5-51_IGHD5-18*01>3_IGHJ4*01 G100K/G104T G24T/S28R/G35V (KT TRV) & V3-4_IGLJ1*01 V91L/S96P S52L (Fab, V domains shown)
VH: EVQLVQSGAEVKKPGESLKISCKTSGYRFTSYWIVWVRQMPGKGLEWMGIIYPGDSDTRYSPSFQGQVTISADKSISTAYLQWSSLKASDTAMYYCARRKYSYTYDYFDYWGQGTLVTVSS
VL: QTVVTQEPSFSVSPGGTVTLTCGLSSGSVSTSYYPSWYQQTPGQAPRTLIYLTNTRSSGVPDRFSGSILGNKAALTITGAQADDESDYYCLLYMGPGISYVFGTGTKVTVL
notes: Fab; Expressed in E. coli with CH1 (plasmid A, His6 and Flag tags) and lambda CL (plasmid E); also called H:KT TRV & L:LP S52L
B8: Fab VH5-51_IGHD5-18*01>3_IGHJ4*01 G100K/G104T G24L/S28R/G35V (KT LRV) & V3-4_IGLJ1*01 V91L/S96P S52T (Fab, V domains shown)
VH: EVQLVQSGAEVKKPGESLKISCKTSGYRFTSYWIVWVRQMPGKGLEWMGIIYPGDSDTRYSPSFQGQVTISADKSISTAYLQWSSLKASDTAMYYCARRKYSYTYDYFDYWGQGTLVTVSS
VL: QTVVTQEPSFSVSPGGTVTLTCGLSSGSVSTSYYPSWYQQTPGQAPRTLIYTTNTRSSGVPDRFSGSILGNKAALTITGAQADDESDYYCLLYMGPGISYVFGTGTKVTVL
notes: Fab; Expressed in E. coli with CH1 (plasmid A, His6 and Flag tags) and lambda CL (plasmid E); also called G100K/G104T G24L/S28R/G35V & V91L/S96P S52T

Assays:
[1] = target: T1, Recombinant Human DLL4 (delta-like protein 4) (human, UniProt Q9NR61 27-524); experiment: ELISA, DLL4 coated on plate, Fab at 12.5 nM (2-fold dilution series), absorbance at 450 nm
T1 construct: Bought recombinant human DLL4 coated on the ELISA plate; also called rHuman DLL4

[2] = target: T1, Recombinant Human DLL4 (delta-like …); experiment: ELISA, DLL4 coated on plate, Fab at 25 nM (2-fold dilution series), absorbance at 450 nm
[3] = target: T1, Recombinant Human DLL4 (delta-like …); experiment: ELISA, DLL4 coated on plate, Fab at 100 nM (2-fold dilution series), absorbance at 450 nm
[4] = target: T1, Recombinant Human DLL4 (delta-like …); experiment: ELISA, DLL4 coated on plate, Fab at 50 nM (2-fold dilution series), absorbance at 450 nm

Row | Binder | ELISA signal [1] | ELISA signal [2] | ELISA signal [3] | ELISA signal [4]
1 | B1 | 0.23 | 0.26 | 0.45 | 0.32
2 | B2 | 0.47 | 0.67 | 0.96 | 0.81
3 | B3 | 0.63 | 0.9 | 1.14 | 1.02
4 | B4 | 0.5 | 0.73 | 1.09 | 0.91
5 | B5 | 0.18 | 0.2 | 0.26 | 0.23
6 | B6 | 0.43 | 0.6 | 0.95 | 0.74
7 | B7 | 0.43 | 0.58 | 1.02 | 0.78
8 | B8 | 0.41 | 0.62 | 0.99 | 0.79
